# Measured values: patent US20220281997A1
# Substitutions are numbered along the chain they refer to.
# B1: R166.C5 (antibody, V domains shown)
# VH: QSVEESGGRLVTPGTPLTLTCTVSGFSLRNFAMSWVRQAPGKGLEWIGIIYSGGTRDYATWAKGRFTISKTSTTVDLKMTSPTTEDTATYFCARDRSPDYSAAFLLWGQGTLVTVSS
# VL: IVMTQTPSSKSVPVGDTVTINCQASESVYSNNHLAWFQQKPGQPPKLLIYSASTLESGVPSRFKGSGSGTQFTLTISGVQCDDAATYYCAGYKSSDTDGTSFGGGTEVVVKG
# B2: R166.H8 (antibody, V domains shown)
# VH: QSVEESGGRLVTPGTPLTLTCTVSGFSLSSFAMSWVRQAPGKGLEWIGIIYATGGTRDYATWAAGRFTISKTSTTVGLKMTSPTTEDTATYFCARDRSPDYSAAFNLWGQGTLVTVSS
# VL: B1 VL
# B3: R166.H9 (antibody, V domains shown)
# VH: QSLEESGGRLVTPGTPLTLTCTASGFSLNNYNMIWVRQAPGEGLEWIGMIGDGDDAAWYASWAKGRFTISKTSTTVDLEVTSLTTEDTAIYFCARYLSFTRLDLWGQGTLVTVSS
# VL: AVLTQTPSPVSAAVGGTVTINCQSSQSVYHNNWLAWYQQKPGQPPKLLIYGAATLASGVPSRFKGSGSGTQFTFTITDVQCDDVGTYYCAGVYNDDSENAFGGGTEVVVKG
# B4: R166.E7 (antibody, V domains shown)
# VH: B1 VH with R29S, N30S, S52T, L105N
# VL: B1 VL
# B5: R166.G8 (antibody, V domains shown)
# VH: LEQSGGGAEGGLVKPGGSLELCCKASGFSLSNIYWICWVRQAPGTGLEWIGCINSGSNSYTYYANWVDGRFTLSRDIDQSTGCLQLNSLTAADTAMYYCARDRDAADTSDWSLNFWGQGTLVTVSS
# VL: QVLTQTPSSVSAAVGGTVTISCQSSDSVNNDNWLAWYQQKPGQPPKLLIYQASKLASGVPSRFSGSGSGTQFTLTISGVQCDDAANYYCQGTGYSSTWYVAFGGGTEVVVKG
# Biological target: camel-derived heavy-chain antibodies on camel PBMC cells
# Assay: flow cytometry, PE-labeled antibody on PBMC of a non-immunized camel
row,proportion of PBMC cells specific for heavy-chain antibodies [%],Binder
1,22.8,B1
2,23.6,B2
3,24.2,B3
4,23.3,B4
5,17.2,B5
